Target: the molecule itself
Assay: size exclusion chromatography (Superose 6), non-denaturing; self-association
Description: Size Exclusion Chromatography. Size exclusion chromatography (SEC) was performed by FPLC using a 24 ml Superose 6 (S6) column (GE Healthcare, Pittsburgh, Pa.). The chromoproteins (100 μl of a 5 mg/ml sample) were first purified through the phenyl HP step, dissolved in 30 mM Tris-HCl (pH 8.0) and 200 mM NaCl, and either loaded onto the column as Pr or immediately following saturating irradiation of the sample with red light (630 nm). Absorption spectra were recorded before and after SEC to verify that the chromoproteins remained enriched in the desired states (Pr or Pfr).
SEC has shown that most, if not all, Phys are dimeric with their binding interface(s) involving one or more regions, including the GAF domain in DrBphP, the PAS-GAF-PHY domain in Syn-Cph1, and the C-terminal HK and HK-related regions in microbial and higher plants Phys. […] Whereas the GAF domain alone as Pr behaved as a monomer of 22 kDa, consistent with its calculated molecular mass of 23.3 kDa, the GAF-PHY fragment behaved as a dimer species at 105-kDa, nearly twice the size of its calculated mass of 48.4 kDa (FIG. 23). […] The predicted molecular masses of monomeric SyB-Cph1 (GAF) and SyB-Cph1 (GAF-PHY) polypeptides are 23.3 kDa and 48.4 kDa, respectively, while the apparent molecular masses measured by SEC are 22 and 106 kDa, respectively.

B1: SyB-Cph1 (GAF) chromoprotein assembled with PCB (other)
chain: MDTETWAAAARPSRDALINRITHQIRQSLELDQILRATVEEVRAFLGTDRVKVYRFDPEGHGTVVAEARGGERLPSLLGLTFPAGDIPEEARRLFRLAQVRVIVDVEAQSRSISQPESWGLSARVPLGEPLQRPVDPCHVHYLKSMGVASSLVVPLMHHQELWGLLVSHHAEPRPYSQEELQVVQLLADQVSIAIAQAELHHHHHH
modifications: phycocyanobilin (PCB) covalently bound at Cys-138
notes: It ran as a monomer on SEC, both as Pr and after saturating red light; also called CYB GAF; BG
binding result: no binding (tested: 100 µl of a 5 mg/ml sample loaded)
